# Patent publication US20050106100
# Several values for one entry are separate records, joined by “and”; a condition that tells them apart may be missing. Identical values can stand only once.
# T1: Ac-Csa-PLG˜Hphe-YL-Ambh-Hynic (not fully specified)
# T1 chain: XPLGXYL
# T2: Ac-Inp-Cit-G˜Hphe-LA-Ahxh-Hynic (not fully specified)
# T2 chain: XXGXLA
# T3: Ac-NGlu-POG˜Hphe-L-Hynic (not fully specified)
# T3 chain: XPXGXL
# T4: Ac-P-Cit-Aib˜Hphe-LA-Ahxh-Hynic (not fully specified)
# T4 chain: PXXXLA
# T5: Ac-P-Cit-Cit-LTA-Ahxh-Hynic
# T5 chain: PXXLTA
# T6: Ac-P-Cit-G-Hphe-LA-Hynic
# T6 chain: PXGXLA
# T7: Ac-P-Cit-G˜Chg-LA-Ahxh-Hynic (not fully specified)
# T7 chain: PXGXLA
# T8: Ac-P-Cit-G˜Hphe-LQ-Hynic (not fully specified)
# T8 chain: PXGXLQ
# T9: Ac-P-Cit-G˜Hphe-OL-Ahxh-Ac[C14] (not fully specified)
# T9 chain: PXGXXL
# T10: Ac-P-Cit-G˜Igl-LA-Ahxh-Hynic (not fully specified)
# T10 chain: PXGXLA
# T11: Ac-P-Cit-G˜Nle-LA-Ahxh-Hynic (not fully specified)
# T11 chain: PXGXLA
# T12: Ac-P-Cit-G˜S(OBn)-LA-Ahxh-Hynic (not fully specified)
# T12 chain: PXGSLA
# T13: Ac-P-Cit-G˜Tle-LA-Ahxh-Hynic (not fully specified)
# T13 chain: PXGXLA
# T14: Ac-P-DLeu-G˜LL-Ahxh-Hynic (not fully specified)
# T14 chain: PLGLL
# T15: Ac-P-NLys-R˜LTA-Ahxh-Hynic (not fully specified)
# T15 chain: PXRLTA
# T16: Ac-P-NMeArg-R˜LTA-Ambh-Hynic (not fully specified)
# T16 chain: PRRLTA
# T17: Ac-P-O(Me)2-G˜Hphe-L-Nle-Ahxh-Hynic (not fully specified)
# T17 chain: PXGXLX
# T18: Ac-PL-DAla˜LL-Ahxh-Hynic (not fully specified)
# T18 chain: PLALL
# T19: Ac-PL-NLys-LL-NHNH-Ac[C14]
# T19 chain: PLXLL
# T20: Ac-PL-NLys˜Ahp-YL-Ahxh-Ac[C14] (not fully specified)
# T20 chain: PLXXYL
# T21: Ac-PL-NLys˜Hphe-RL-Ahxh-Ac[C14] (not fully specified)
# T21 chain: PLXXRL
# T22: Ac-PL-NLys˜LL-Ambh-Ac[C14] (not fully specified)
# T22 chain: PLXLL
# T23: Ac-PL-Sar˜LL-Ahxh-Ac[C14] (not fully specified)
# T23 chain: PLXLL
# T24: Ac-PLG-Hphe-OL-Ahxh-Ac[C14]
# T24 chain: PLGXXL
# T25: Ac-PLG˜Ahp-YL-Ahxh-Ac[C14] (not fully specified)
# T25 chain: PLGXYL
# T26: Ac-PLG˜Hphe-Cit-L-Ahxh-Hynic (not fully specified)
# T26 chain: PLGXXL
# T27: Ac-PLG˜Hphe-K(Me)2-L-Ahxh-Hynic (not fully specified)
# T27 chain: PLGXKL
# T28: Ac-PLG˜Hphe-KL-Ahxh-Ac[C14] (not fully specified)
# T28 chain: PLGXKL
# T29: Ac-PLG˜Hphe-KL-Ahxh-Hynic
# T29 chain: PLGXKL
# T30: Ac-PLG˜Hphe-OLA-Ahxh-Hynic
# T30 chain: PLGXXLA
# T31: Ac-PLG˜Hphe-RL-Ahxh-Hynic
# T31 chain: PLGXRL
# T32: Ac-PLG˜Hphe-RLA-Ahxh-Hynic
# T32 chain: PLGXRLA
# T33: Ac-PLG˜Hphe-RLA-Ambh-Hynic
# T33 chain: PLGXRLA
# T34: Ac-PLG˜Hphe-YL-Ahxh-Hynic (not fully specified)
# T34 chain: PLGXYL
# T35: Ac-PLG˜LAL-Ahxh-Hynic
# T35 chain: PLGLAL
# T36: Ac-PLG˜LL-Ambh-Hynic
# T36 chain: PLGLL
# T37: Ac-PLG˜LLA-Ahxh-Hynic (not fully specified)
# T37 chain: PLGLLA
# T38: Ac-PLG˜LOL-Ahxh-Hynic (not fully specified)
# T38 chain: PLGLXL
# T39: Ac-PLG˜LWA-Ahxh-Hynic (not fully specified)
# T39 chain: PLGLWA
# T40: Ac-PLG˜LY-Ahxh-Ac[C14] (not fully specified)
# T40 chain: PLGLY
# T41: Ac-PLG˜LYA-Ahxh-Hynic (not fully specified)
# T41 chain: PLGLYA
# T42: Ac-PLG˜Pabu-Cit-L-Ahxh-Ac[C14] (not fully specified)
# T42 chain: PLGXXL
# T43: Ac-PLG˜S(OBn)-LL-Ahxh-Ac[C14] (not fully specified)
# T43 chain: PLGSLL
# T44: Ac-POG˜Hphe-L-Nle-Ahxh-Hynic
# T44 chain: PXGXLX
# T45: Ac-POG˜LLA-Ahxh-Hynic
# T45 chain: PXGLLA
# T46: Ac-PRG˜Hphe-Dab-A-Ahxh-Hynic
# T46 chain: PRGXXA
# T47: Ac-PRG˜Hphe-LA-Ahxh-Hynic
# T47 chain: PRGXLA
# T48: Ac-PRR˜LTA-Ahxh-Hynic
# T48 chain: PRRLTA
# T49: Ac-Tic-Cit-G˜Hphe-SA-Ahxh-Hynic
# T49 chain: XXGXSA
# T50: H-NLys-PLG˜LYT-Ahxh-Hynic (not fully specified)
# T50 chain: XPLGLYT
# T51: H-γ-DGlu-PLG-LYT-Ahxh-Hynic (not fully specified)
# T51 chain: EPLGLYT
# T52: Hynic-Ahx-PLG˜Hphe-OLEE-OH
# T52 chain: XPLGXXLEE
# B1: human MMP-9 (protein)
# chain: MRTPRCGVPDLGRFQTFEGDLKWHHHNITYWIQNYSEDLPRAVIDDAFARAFALWSAVTPLTFTRVYSRDADIVIQFGVAEHGDGYPFDGKDGLLAHAFPPGPGIQGDAHFDDDELWSLGKGVVVPTRFGNADGAACHFPFIFEGRSYSACTTDGRSDGLPWCSTTANYDTDDRFGFCPSERLYTQDGNADGKPCQFPFIFQGQSYSACTTDGRSDGYRWCATTANYDRDKLFGFCPTRADSTVMGGNSAGELCVFPFTFLGKEYSTCTSEGRGDGRLWCATTSNFDSDKKWGFCPDQGYSLFLVAAHEFGHALGLDHSSVPEALMYPMYRFTEGPPLHKDDVNGIRHLYGPRPEPEPRPPTTTTPQPTAPPTVCPTGPPTVHPSERPTAGPTGPPSAGPTGPPTAGPSTATTVPLSPVDDACNVNIFDAIAEIGNQLYLFKDGKYWRFSEGRGSRPQGPFLIADKWPALPRKLDSVFEERLSKKLFFFSGRQVWVYTGASVLGPRRLDKLGLGADVAQVTGALRSGRGKMLLFSGRRLWRFDVKAQMVDPRSASEVDRMFPGVPLDTHDVFQYREKAYFCQDRFYWRVSSRSELNQVDQVGYVTYDILQCPED
# How the values were obtained:
# [1] = target: T1, Ac-Csa-PLG˜Hphe-YL-Ambh-Hynic
# [2] = target: T2, Ac-Inp-Cit-G˜Hphe-LA-Ahxh-Hynic
# [3] = target: T3, Ac-NGlu-POG˜Hphe-L-Hynic
# [4] = target: T4, Ac-P-Cit-Aib˜Hphe-LA-Ahxh-Hynic
# [5] = target: T5, Ac-P-Cit-Cit-LTA-Ahxh-Hynic
# [6] = target: T6, Ac-P-Cit-G-Hphe-LA-Hynic
# [7] = target: T7, Ac-P-Cit-G˜Chg-LA-Ahxh-Hynic
# [8] = target: T8, Ac-P-Cit-G˜Hphe-LQ-Hynic
# [9] = target: T9, Ac-P-Cit-G˜Hphe-OL-Ahxh-Ac[C14]
# [10] = target: T10, Ac-P-Cit-G˜Igl-LA-Ahxh-Hynic
# [11] = target: T11, Ac-P-Cit-G˜Nle-LA-Ahxh-Hynic
# [12] = target: T12, Ac-P-Cit-G˜S(OBn)-LA-Ahxh-Hynic
# [13] = target: T13, Ac-P-Cit-G˜Tle-LA-Ahxh-Hynic
# [14] = target: T14, Ac-P-DLeu-G˜LL-Ahxh-Hynic
# [15] = target: T15, Ac-P-NLys-R˜LTA-Ahxh-Hynic
# [16] = target: T16, Ac-P-NMeArg-R˜LTA-Ambh-Hynic
# [17] = target: T17, Ac-P-O(Me)2-G˜Hphe-L-Nle-Ahxh-Hynic
# [18] = target: T18, Ac-PL-DAla˜LL-Ahxh-Hynic
# [19] = target: T19, Ac-PL-NLys-LL-NHNH-Ac[C14]
# [20] = target: T20, Ac-PL-NLys˜Ahp-YL-Ahxh-Ac[C14]
# [21] = target: T21, Ac-PL-NLys˜Hphe-RL-Ahxh-Ac[C14]
# [22] = target: T22, Ac-PL-NLys˜LL-Ambh-Ac[C14]
# [23] = target: T23, Ac-PL-Sar˜LL-Ahxh-Ac[C14]
# [24] = target: T24, Ac-PLG-Hphe-OL-Ahxh-Ac[C14]
# [25] = target: T25, Ac-PLG˜Ahp-YL-Ahxh-Ac[C14]
# [26] = target: T26, Ac-PLG˜Hphe-Cit-L-Ahxh-Hynic
# [27] = target: T27, Ac-PLG˜Hphe-K(Me)2-L-Ahxh-Hynic
# [28] = target: T28, Ac-PLG˜Hphe-KL-Ahxh-Ac[C14]
# [29] = target: T29, Ac-PLG˜Hphe-KL-Ahxh-Hynic
# [30] = target: T30, Ac-PLG˜Hphe-OLA-Ahxh-Hynic
# [31] = target: T31, Ac-PLG˜Hphe-RL-Ahxh-Hynic
# [32] = target: T32, Ac-PLG˜Hphe-RLA-Ahxh-Hynic
# [33] = target: T33, Ac-PLG˜Hphe-RLA-Ambh-Hynic
# [34] = target: T34, Ac-PLG˜Hphe-YL-Ahxh-Hynic
# [35] = target: T35, Ac-PLG˜LAL-Ahxh-Hynic
# [36] = target: T36, Ac-PLG˜LL-Ambh-Hynic
# [37] = target: T37, Ac-PLG˜LLA-Ahxh-Hynic
# [38] = target: T38, Ac-PLG˜LOL-Ahxh-Hynic
# [39] = target: T39, Ac-PLG˜LWA-Ahxh-Hynic
# [40] = target: T40, Ac-PLG˜LY-Ahxh-Ac[C14]
# [41] = target: T41, Ac-PLG˜LYA-Ahxh-Hynic
# [42] = target: T42, Ac-PLG˜Pabu-Cit-L-Ahxh-Ac[C14]
# [43] = target: T43, Ac-PLG˜S(OBn)-LL-Ahxh-Ac[C14]
# [44] = target: T44, Ac-POG˜Hphe-L-Nle-Ahxh-Hynic
# [45] = target: T45, Ac-POG˜LLA-Ahxh-Hynic
# [46] = target: T46, Ac-PRG˜Hphe-Dab-A-Ahxh-Hynic
# [47] = target: T47, Ac-PRG˜Hphe-LA-Ahxh-Hynic
# [48] = target: T48, Ac-PRR˜LTA-Ahxh-Hynic
# [49] = target: T49, Ac-Tic-Cit-G˜Hphe-SA-Ahxh-Hynic
# [50] = target: T50, H-NLys-PLG˜LYT-Ahxh-Hynic
# [51] = target: T51, H-γ-DGlu-PLG-LYT-Ahxh-Hynic
# [52] = target: T52, Hynic-Ahx-PLG˜Hphe-OLEE-OH
protein,measurement,setting,value
B1,Kcat/Km,[1],41600 M⁻¹ s⁻¹
same,Kcat/Km,[2],1650 M⁻¹ s⁻¹
same,Kcat/Km,[3],613 M⁻¹ s⁻¹
same,Kcat/Km,[4],0 M⁻¹ s⁻¹
same,Kcat/Km,[5],29300 M⁻¹ s⁻¹
same,Kcat/Km,[6],> 250000 M⁻¹ s⁻¹
same,Kcat/Km,[7],20700 M⁻¹ s⁻¹
same,Kcat/Km,[8],79600 M⁻¹ s⁻¹
same,Kcat/Km,[9],28600 M⁻¹ s⁻¹
same,Kcat/Km,[10],0 M⁻¹ s⁻¹
same,Kcat/Km,[11],116000 M⁻¹ s⁻¹
same,Kcat/Km,[12],> 250000 M⁻¹ s⁻¹
same,Kcat/Km,[13],0 M⁻¹ s⁻¹
same,Kcat/Km,[14],438 M⁻¹ s⁻¹
same,Kcat/Km,[15],0 M⁻¹ s⁻¹
same,Kcat/Km,[16],792 M⁻¹ s⁻¹
same,Kcat/Km,[17],27000 M⁻¹ s⁻¹
same,Kcat/Km,[18],0 M⁻¹ s⁻¹
same,Kcat/Km,[19],138000 M⁻¹ s⁻¹
same,Kcat/Km,[20],0 M⁻¹ s⁻¹
same,Kcat/Km,[21],114000 M⁻¹ s⁻¹
same,Kcat/Km,[22],88000 M⁻¹ s⁻¹
same,Kcat/Km,[23],143000 M⁻¹ s⁻¹
same,Kcat/Km,[24],77500 M⁻¹ s⁻¹
same,Kcat/Km,[25],60400 M⁻¹ s⁻¹
same,Kcat/Km,[26],171000 M⁻¹ s⁻¹
same,Kcat/Km,[27],55000 M⁻¹ s⁻¹
same,Kcat/Km,[28],120000 M⁻¹ s⁻¹
same,Kcat/Km,[29],93400 M⁻¹ s⁻¹
same,Kcat/Km,[30],14100 M⁻¹ s⁻¹
same,Kcat/Km,[31],168000 M⁻¹ s⁻¹
same,Kcat/Km,[32],57700 M⁻¹ s⁻¹
same,Kcat/Km,[33],4550 M⁻¹ s⁻¹
same,Kcat/Km,[34],> 100000 M⁻¹ s⁻¹
same,Kcat/Km,[35],7140 M⁻¹ s⁻¹
same,Kcat/Km,[36],36300 M⁻¹ s⁻¹
same,Kcat/Km,[37],226000 M⁻¹ s⁻¹
same,Kcat/Km,[38],39400 M⁻¹ s⁻¹
same,Kcat/Km,[39],> 500000 M⁻¹ s⁻¹
same,Kcat/Km,[40],336000 M⁻¹ s⁻¹
same,Kcat/Km,[41],512000 M⁻¹ s⁻¹
same,Kcat/Km,[42],0 M⁻¹ s⁻¹
same,Kcat/Km,[43],> 500000 M⁻¹ s⁻¹
same,Kcat/Km,[44],52000 M⁻¹ s⁻¹
same,Kcat/Km,[45],187000 M⁻¹ s⁻¹
same,Kcat/Km,[46],474000 M⁻¹ s⁻¹
same,Kcat/Km,[47],> 500000 M⁻¹ s⁻¹
same,Kcat/Km,[48],33500 M⁻¹ s⁻¹
same,Kcat/Km,[49],1880 M⁻¹ s⁻¹
same,Kcat/Km,[50],149000 M⁻¹ s⁻¹
same,Kcat/Km,[51],59400 M⁻¹ s⁻¹
same,Kcat/Km,[52],2980 M⁻¹ s⁻¹ and 1670 M⁻¹ s⁻¹
